First the molecules themselves.
B1: GroEL1 sybody number 5 (VHH)
VHH: QVQLVESGGGLVQAGGSLRLSCAASGFPVEHKQMRWYRQAPGKEREWVAAIESSGQYTIYADSVKGRFTISRDNAKNTVYLQMNSLKPEDTAVYYCFVGVGAGYYGQGTQVTVSA
notes: not shown: Myc, C-terminal, kept; His6, C-terminal, kept
B2: GroEL1 sybody number 9 (VHH)
VHH: QVQLVESGGGLVQAGGSLRLSCAASGLPVWQQGMTWYRQAPGKEREWVAAIDSVGAQTYYADSVKGRFTISRDNAKNTVYLQMNSLKPEDTAVYYCAVNVGARYIGQGTQVTVSA
notes: as for B1
B3: GroEL1 sybody number 18 (VHH)
VHH: QVQLVESGGGLVQAGGSLRLSCAASGFPVKTKHMYWYRQAPGKEREWVAAITSIGMITAYADSVKGRFTISRDNAKNTVYLQMNSLKPEDTAVYYCNVKDWGTNRQAYDYWGQGTQVTVSA
notes: as for B1
B4: GroEL1 sybody number 1 (VHH)
VHH: QVQLVESGGGLVQAGGSLRLSCAASGFPVEQRQMYWYRQAPGKEREWVAAIQSYGKRTKYADSVKGRFTISRDNAKNTVYLQMNSLKPEDTAVYYCVVYVGGGYKGQGTQVTVSA
notes: as for B1
B5: GroEL1 sybody number 12 (VHH)
VHH: QVQLVESGGGLVQAGGSLRLSCAASGFPVTQAWMEWYRQAPGKEREWVAAIFSHGGGTFYADSVKGRFTISRDNAKNTVYLQMNSLKPEDTAVYYCNVKDTGERDNWYDYWGQGTQVTVSA
notes: as for B1
B6: GroEL1 sybody number 31 (VHH)
VHH: QVQLVESGGGSVQAGGSLRLSCAASGTIYKIYYLGWFRQAPGKEREGVAALNTFSGGTYYADSVKGRFTVSLDNAKNTVYLQMNSLKPEDTALYYCAAAYDMEGYAWPLYWWHYEYWGQGTQVTVSA
notes: also called GroEL1_SB31; not shown: Myc, C-terminal, kept; His6, C-terminal, kept
B7: GroEL2 sybody number 32 (VHH)
VHH: QVQLVESGGGLVQAGGSLRLSCAASGFPVVSQFMEWHRQAPGKEREWVAAIDSTGYSTFYADSVKGRFTISRDNAKNTVYLQMNSLKPEDTAVYYCNVKDAGEGQEQYDYWGQGTQVTVSA
notes: as for B1
B8: GroEL2 sybody number 16 (VHH)
VHH: QVQLVESGGGLVQAGGSLRLSCAASGFPVSSSTMTWYRQAPGKEREWVAAIESWGAYTWYADSVKGRFTISRDNAKNTVYLQMNSLKPEDTAVYYCNVKDYDGVADVIYDYWGQGTQVTVSA
notes: as for B1
B9: GroEL2 sybody number 3 (VHH)
VHH: QVQLVESGGGLVQAGGSLRLSCAASGFPVAYWEMVWYRQAPGKEREWVAAIRSTGWKTVYADSVKGRFTISRDNAKNTVYLQMNSLKPEDTAVYYCTAVYVGVHYKGQGTQVTVSA
notes: also called GroEL2_SB3; not shown: Myc, C-terminal, kept; His6, C-terminal, kept
B10: GroEL2 sybody number 11 (VHH)
VHH: QVQLVESGGGLVQAGGSLRLSCAASGFPVDSAYMWWYRQAPGKEREWVAAIESNGEYTFYADSVKGRFTISRDNAKNTVYLQMNSLKPEDTAVYYCNVKDTGAHHSYYDYWGQGTQVTVSA
notes: as for B1
B11: GroEL2 sybody number 27 (VHH)
VHH: QVQLVESGGGLVQAGGSLRLSCAASGFPVWKAYMWWYRQAPGKEREWVAAIESNGAYTFYADSVKGRFTISRDNAKNTVYLQMNSLKPEDTAVYYCNVKDTGSDSENYDYWGQGTQVTVSA
notes: as for B1
B12: GroEL2 sybody number 8 (VHH)
VHH: QVQLVESGGGLVQAGGSLRLSCAASGFPVYMSWMYWYRQAPGKEREWVAAIMSEGAGTWYADSVKGRFTISRDNAKNTVYLQMNSLKPEDTAVYYCNVKDTGSFHAQYDYWGQGTQVTVSA
notes: as for B1
B13: GroEL2 sybody number 22 (VHH)
VHH: QVQLVESGGGLVQAGGSLRLSCAASGFPVYHSWMYWYRQAPGKEREWVAAIMSDGHGTWYADSVKGRFTISRDNAKNTVYLQMNSLKPEDTAVYYCNVKDTGSSTTIYDYWGQGTQVTVSA
notes: as for B1
B14: GroEL2 sybody number 28 (VHH)
VHH: QVQLVESGGGLVQAGGSLRLSCAASGFPVDAYWMYWYRQAPGKEREWVAAIMSSGHGTWYADSVKGRFTISRDNAKNTVYLQMNSLKPEDTAVYSCNVKDKGAQAAWYDYWGQGTQVTVSA
notes: as for B1
B15: GroEL2 sybody number 31 (VHH)
VHH: QVQLVESGGGLVQAGGSLRLSCAASGFPVWMEWMYWYRQAPGKEREWVAAIMSEGDGTWYADSVKGRFTISRDNAKNTVYLQMNSLKPEDTAVYYCNVKDFGYNNNYYDYWGQGTQVTVSA
notes: as for B1
B16: GroEL2 sybody number 33 (VHH)
VHH: QVQLVESGGGLVQAGGSLRLSCAASGFPVYQHWMYWYRQAPGKEREWVAAIMSQGAGTWYADSVRGRFTISRDNAKNTVYLQMNSLKPEDTAVYYCNVKDLGKAEYNYDYWGQGTQVTVSA
notes: as for B1
B17: GroEL2 sybody number 9 (VHH)
VHH: QVQLVESGGGLVQAGGSLRLSCAASGFPVYQSWMYWYRQAPGKEREWVAAIMSDGSGTWYADSVKGRFTISRDNAKNTVYLQMNSLKPEDTAVYYCNVKDFGHSRSRYDYWGQGTQVTVSA
notes: also called GroEL2_SB9; not shown: Myc, C-terminal, kept; His6, C-terminal, kept
B18: GroEL2 sybody number 7 (VHH)
VHH: QVQLVESGGGLVQAGGSLRLSCAASGFPVNDAWMYWYRQAPGKEREWVAAIMSMGFGTWYADSVKGRFTISRDNAKNTVYLQMNSLKPEDTAVYYCNVKDRGKEHFSYDYWGQGTQVTVSA
notes: as for B1
B19: GroEL2 sybody number 10 (VHH)
VHH: QVQLVESGGGLVQAGGSLRLSCAASGFPVKHWYMHWYRQAPGKEREWVAAIQSTGSYTAYADSVKGRFTISRDNAKNTVYLQMNSLKPEDTAVYYCNVKEYGFYHASYDYWGQGTQVTVSA
notes: as for B1
B20: GroEL2 sybody number 2 (VHH)
VHH: QVQLVESGGGLVQAGGSLRLSCAASGFPVSSSTMTWYRQAPGKEREWVAAIDSVGNETYYADSVKGRFTISRDNAKNTVYLQMNSLKPEDTAVYYCAVFVGSYYGQGTQVTVSA
notes: as for B1
B21: GroEL2 sybody number 1 (VHH)
VHH: QVQLVESGGGLVQAGGSLRLSCAASGFPVAITYMHWYRQAPGKEREWVAAISSTGKTTWYADSVKGRFTISRDNAKNTVYLQMNSLKPEDTAVYYCLVEVGHYYKGQGTQVTVSA
notes: as for B1
B22: GroEL2 sybody number 19 (VHH)
VHH: QVQLVESGGGLVQAGGSLRLSCAASGFPVEWLEMAWYRQAPGKEREWVAAIYSYGMETEYADSVKGRFTISRDNAKNTVYLQMNSLKPEDTAVYYCNVKDGGHAAWWYDYWGQGTQVTVSA
notes: as for B1

Data on 22 molecules can be found in paper PMC10308901, “In vitro and ex vivo proteomics of Mycobacterium marinum biofilms and the development of biofilm-binding synthetic nanobodies” (mSystems, 2023).

In general, Kd refers to a measure of binding affinity in units of concentration.

One test addresses T1, Mycobacterium marinum GroEL1, recombinant (Mycobacterium marinum, UniProt B2HD10 1-539).
T1 construct: also called Mmr GroEL1
Kind of test: BLI. Conditions: both partners purified.
For B1, the Kd was about 127 nM.
Take B2: the Kd was about 64 nM.
Still for that read-out and setting: next, B3: about 22 nM; B4: about 130 nM; B5: about 14 nM.
Same read-out and setting: next, B6: about 92 nM.

The next test concerns the target T2, Mycobacterium marinum GroEL2, recombinant, biotinylated AVI-tagged form (Mycobacterium marinum, UniProt B2HQP9 1-541).
T2 construct: also called Mmr GroEL2; biotinylated GroEL protein
Kind of test: BLI. Conditions: both partners purified.
Regarding B7, the Kd is about 153 nM.
The same measure, in the same setting: next, B8: about 15 nM; B9: about 18 nM.
With B10, the dissociation constant (Kd) is about 271 nM.
Still for that read-out and setting: the result for B11 reads about 101 nM; that for B12, about 13 nM; that for B13, about 507 nM.
On the same count and under the same terms, next, B14: about 35 nM.
Still for that read-out and setting: next, B15: about 66 nM; B16: about 244 nM.
Take B17: the Kd is about 277 nM.
Still for that read-out and setting: next, B18: about 100 nM.
Same read-out and setting: next, B19: about 193 nM; B20: about 157 nM.
Same read-out and setting: next, B21: about 591 nM; B22: about 366 nM.
